For this experiment, the system named is 1.3 kbp, 2.8 kbp, and 3.6 kbp of human β-globin. Briefly: Amplification of long-chain DNA in PCR using dUTP. In kind it is biochemical. Also noted: key to Results of PCR in the presence of dUTP 1.3 kbp / Results of PCR in the presence of dUTP 2.8 kbp / Results of PCR in the presence of dUTP 3.6 kbp: A: Amplified; B: Amplified (faint band); C: Not amplified. The following applies: dTTP replaced by dUTP, 35 cycles. The procedure, abridged: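 Enzymes (1 U, premixed with KOD antibody) amplified 1.3, 2.8 and 3.6 kbp β-globin from 10 ng human genomic DNA with 2 mM dNTPs having dUTP in place of dTTP, 1.5 mM MgSO4, 35 cycles (98° C. 10 s, 65° C. 30 s, 68° C. ~1 min/kbp). Taq control: 2.5 U, 94° C. denaturation. Yield judged by ethidium-stained agarose gel.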

On to “KOD N210D/Y7A/V93K: KOD N210D (exo(−)) mutant with Y7A and V93K”, for which the “Results of PCR in the presence of dUTP 1.3 kbp” value (from here on “Results of PCR … of dUTP 1.3 kbp”) is “A”, the “Results of PCR in the presence of dUTP 2.8 kbp” value (shortened to “Results of PCR … of dUTP 2.8 kbp”) is listed as “A” and the “Results of PCR in the presence of dUTP 3.6 kbp” value (“Results of PCR … of dUTP 3.6 kbp” below) is recorded as “A”.
On to “KOD Y7A/P115Δ: modified KOD DNA polymerase with Y7A and lacking P115”, for which the “Results of PCR … of dUTP 1.3 kbp” value is “C”, the “Results of PCR … of dUTP 2.8 kbp” value was “C” and the “Results of PCR … of dUTP 3.6 kbp” value is listed as “C”.
Take “KOD Y7A/P36R: modified KOD DNA polymerase with Y7A and P36R”: the “Results of PCR … of dUTP 1.3 kbp” value was “A”, the “Results of PCR … of dUTP 2.8 kbp” value is given as “A” and the “Results of PCR … of dUTP 3.6 kbp” value is “B”.

B1: KOD Y7A: modified DNA polymerase derived from Thermococcus kodakaraensis KOD1 with Y7A (protein, listed as Thermococcus kodakaraensis)
chain: MILDTDAITEDGKPVIRIFKKENGEFKIEYDRTFEPYFYALLKDDSAIEEVKKITAERHGTVVTVKRVEKVQKKFLGRPVEVWKLYFTHPQDVPAIRDKIREHPAVIDIYEYDIPFAKRYLIDKGLVPMEGDEELKMLAFDIETLYHEGEEFAEGPILMISYADEEGARVITWKNVDLPYVDVVSTEREMIKRFLRVVKEKDPDVLITYNGDNFDFAYLKKRCEKLGINFALGRDGSEPKIQRMGDRFAVEVKGRIHFDLYPVIRRTINLPTYTLEAVYEAVFGQPKEKVYAEEITTAWETGENLERVARYSMEDAKVTYELGKEFLPMEAQLSRLIGQSLWDVSRSSTGNLVEWFLLRKAYERNELAPNKPDEKELARRRQSYEGGYVKEPERGLWENIVYLDFRSLYPSIIITHNVSPDTLNREGCKEYDVAPQVGHRFCKDFPGFIPSLLGDLLEERQKIKKKMKATIDPIERKLLDYRQRAIKILANSYYGYYGYARARWYCKECAESVTAWGREYITMTIKEIEEKYGFKVIYSDTDGFFATIPGADAETVKKKAMEFLKYINAKLPGALELEYEGFYKRGFFVTKKKYAVIDEEGKITTRGLEIVRRDWSEIAKETQARVLEALLKDGDVEKAVRIVKEVTEKLSKYEVPPEKLVIHEQITRDLKDYKATGPHVAVAKRLAARGVKIRPGTVISYIVLKGSGRIGDRAIPFDEFDPTKHKYDAEYYIENQVLPAVERILRAFGYRKEDLRYQKTRQVGLSAWLKPKGT
Take B1: the “Results of PCR … of dUTP 1.3 kbp” value was “C”, the “Results of PCR … of dUTP 2.8 kbp” value is reported as “C” and the “Results of PCR … of dUTP 3.6 kbp” value was “C”.

B2: KOD V93Q: modified KOD DNA polymerase with V93Q (protein, listed as Thermococcus kodakaraensis)
chain: MILDTDYITEDGKPVIRIFKKENGEFKIEYDRTFEPYFYALLKDDSAIEEVKKITAERHGTVVTVKRVEKVQKKFLGRPVEVWKLYFTHPQDQPAIRDKIREHPAVIDIYEYDIPFAKRYLIDKGLVPMEGDEELKMLAFDIETLYHEGEEFAEGPILMISYADEEGARVITWKNVDLPYVDVVSTEREMIKRFLRVVKEKDPDVLITYNGDNFDFAYLKKRCEKLGINFALGRDGSEPKIQRMGDRFAVEVKGRIHFDLYPVIRRTINLPTYTLEAVYEAVFGQPKEKVYAEEITTAWETGENLERVARYSMEDAKVTYELGKEFLPMEAQLSRLIGQSLWDVSRSSTGNLVEWFLLRKAYERNELAPNKPDEKELARRRQSYEGGYVKEPERGLWENIVYLDFRSLYPSIIITHNVSPDTLNREGCKEYDVAPQVGHRFCKDFPGFIPSLLGDLLEERQKIKKKMKATIDPIERKLLDYRQRAIKILANSYYGYYGYARARWYCKECAESVTAWGREYITMTIKEIEEKYGFKVIYSDTDGFFATIPGADAETVKKKAMEFLKYINAKLPGALELEYEGFYKRGFFVTKKKYAVIDEEGKITTRGLEIVRRDWSEIAKETQARVLEALLKDGDVEKAVRIVKEVTEKLSKYEVPPEKLVIHEQITRDLKDYKATGPHVAVAKRLAARGVKIRPGTVISYIVLKGSGRIGDRAIPFDEFDPTKHKYDAEYYIENQVLPAVERILRAFGYRKEDLRYQKTRQVGLSAWLKPKGT
For B2, the “Results of PCR … of dUTP 1.3 kbp” value is “C”, the “Results of PCR … of dUTP 2.8 kbp” value was “C” and the “Results of PCR … of dUTP 3.6 kbp” value is listed as “C”.

B3: KOD P36H: modified KOD DNA polymerase with P36H (protein, listed as Thermococcus kodakaraensis)
chain: MILDTDYITEDGKPVIRIFKKENGEFKIEYDRTFEHYFYALLKDDSAIEEVKKITAERHGTVVTVKRVEKVQKKFLGRPVEVWKLYFTHPQDVPAIRDKIREHPAVIDIYEYDIPFAKRYLIDKGLVPMEGDEELKMLAFDIETLYHEGEEFAEGPILMISYADEEGARVITWKNVDLPYVDVVSTEREMIKRFLRVVKEKDPDVLITYNGDNFDFAYLKKRCEKLGINFALGRDGSEPKIQRMGDRFAVEVKGRIHFDLYPVIRRTINLPTYTLEAVYEAVFGQPKEKVYAEEITTAWETGENLERVARYSMEDAKVTYELGKEFLPMEAQLSRLIGQSLWDVSRSSTGNLVEWFLLRKAYERNELAPNKPDEKELARRRQSYEGGYVKEPERGLWENIVYLDFRSLYPSIIITHNVSPDTLNREGCKEYDVAPQVGHRFCKDFPGFIPSLLGDLLEERQKIKKKMKATIDPIERKLLDYRQRAIKILANSYYGYYGYARARWYCKECAESVTAWGREYITMTIKEIEEKYGFKVIYSDTDGFFATIPGADAETVKKKAMEFLKYINAKLPGALELEYEGFYKRGFFVTKKKYAVIDEEGKITTRGLEIVRRDWSEIAKETQARVLEALLKDGDVEKAVRIVKEVTEKLSKYEVPPEKLVIHEQITRDLKDYKATGPHVAVAKRLAARGVKIRPGTVISYIVLKGSGRIGDRAIPFDEFDPTKHKYDAEYYIENQVLPAVERILRAFGYRKEDLRYQKTRQVGLSAWLKPKGT
Take B3: the “Results of PCR … of dUTP 1.3 kbp” value was “B”, the “Results of PCR … of dUTP 2.8 kbp” value is on record as “B” and the “Results of PCR … of dUTP 3.6 kbp” value was “C”.

B4: KOD P36R: modified KOD DNA polymerase with P36R (protein, listed as Thermococcus kodakaraensis)
chain: MILDTDYITEDGKPVIRIFKKENGEFKIEYDRTFERYFYALLKDDSAIEEVKKITAERHGTVVTVKRVEKVQKKFLGRPVEVWKLYFTHPQDVPAIRDKIREHPAVIDIYEYDIPFAKRYLIDKGLVPMEGDEELKMLAFDIETLYHEGEEFAEGPILMISYADEEGARVITWKNVDLPYVDVVSTEREMIKRFLRVVKEKDPDVLITYNGDNFDFAYLKKRCEKLGINFALGRDGSEPKIQRMGDRFAVEVKGRIHFDLYPVIRRTINLPTYTLEAVYEAVFGQPKEKVYAEEITTAWETGENLERVARYSMEDAKVTYELGKEFLPMEAQLSRLIGQSLWDVSRSSTGNLVEWFLLRKAYERNELAPNKPDEKELARRRQSYEGGYVKEPERGLWENIVYLDFRSLYPSIIITHNVSPDTLNREGCKEYDVAPQVGHRFCKDFPGFIPSLLGDLLEERQKIKKKMKATIDPIERKLLDYRQRAIKILANSYYGYYGYARARWYCKECAESVTAWGREYITMTIKEIEEKYGFKVIYSDTDGFFATIPGADAETVKKKAMEFLKYINAKLPGALELEYEGFYKRGFFVTKKKYAVIDEEGKITTRGLEIVRRDWSEIAKETQARVLEALLKDGDVEKAVRIVKEVTEKLSKYEVPPEKLVIHEQITRDLKDYKATGPHVAVAKRLAARGVKIRPGTVISYIVLKGSGRIGDRAIPFDEFDPTKHKYDAEYYIENQVLPAVERILRAFGYRKEDLRYQKTRQVGLSAWLKPKGT
As for B4, the “Results of PCR … of dUTP 1.3 kbp” value is “B”, the “Results of PCR … of dUTP 2.8 kbp” value is recorded as “B” and the “Results of PCR … of dUTP 3.6 kbp” value was “B”.

B5: KOD V93K: modified KOD DNA polymerase with V93K (protein, listed as Thermococcus kodakaraensis)
chain: MILDTDYITEDGKPVIRIFKKENGEFKIEYDRTFEPYFYALLKDDSAIEEVKKITAERHGTVVTVKRVEKVQKKFLGRPVEVWKLYFTHPQDKPAIRDKIREHPAVIDIYEYDIPFAKRYLIDKGLVPMEGDEELKMLAFDIETLYHEGEEFAEGPILMISYADEEGARVITWKNVDLPYVDVVSTEREMIKRFLRVVKEKDPDVLITYNGDNFDFAYLKKRCEKLGINFALGRDGSEPKIQRMGDRFAVEVKGRIHFDLYPVIRRTINLPTYTLEAVYEAVFGQPKEKVYAEEITTAWETGENLERVARYSMEDAKVTYELGKEFLPMEAQLSRLIGQSLWDVSRSSTGNLVEWFLLRKAYERNELAPNKPDEKELARRRQSYEGGYVKEPERGLWENIVYLDFRSLYPSIIITHNVSPDTLNREGCKEYDVAPQVGHRFCKDFPGFIPSLLGDLLEERQKIKKKMKATIDPIERKLLDYRQRAIKILANSYYGYYGYARARWYCKECAESVTAWGREYITMTIKEIEEKYGFKVIYSDTDGFFATIPGADAETVKKKAMEFLKYINAKLPGALELEYEGFYKRGFFVTKKKYAVIDEEGKITTRGLEIVRRDWSEIAKETQARVLEALLKDGDVEKAVRIVKEVTEKLSKYEVPPEKLVIHEQITRDLKDYKATGPHVAVAKRLAARGVKIRPGTVISYIVLKGSGRIGDRAIPFDEFDPTKHKYDAEYYIENQVLPAVERILRAFGYRKEDLRYQKTRQVGLSAWLKPKGT
For B5, the “Results of PCR … of dUTP 1.3 kbp” value is reported as “B”, the “Results of PCR … of dUTP 2.8 kbp” value is recorded as “B” and the “Results of PCR … of dUTP 3.6 kbp” value was “B”.

B6: KOD V93R: modified KOD DNA polymerase with V93R (protein, listed as Thermococcus kodakaraensis)
chain: MILDTDYITEDGKPVIRIFKKENGEFKIEYDRTFEPYFYALLKDDSAIEEVKKITAERHGTVVTVKRVEKVQKKFLGRPVEVWKLYFTHPQDRPAIRDKIREHPAVIDIYEYDIPFAKRYLIDKGLVPMEGDEELKMLAFDIETLYHEGEEFAEGPILMISYADEEGARVITWKNVDLPYVDVVSTEREMIKRFLRVVKEKDPDVLITYNGDNFDFAYLKKRCEKLGINFALGRDGSEPKIQRMGDRFAVEVKGRIHFDLYPVIRRTINLPTYTLEAVYEAVFGQPKEKVYAEEITTAWETGENLERVARYSMEDAKVTYELGKEFLPMEAQLSRLIGQSLWDVSRSSTGNLVEWFLLRKAYERNELAPNKPDEKELARRRQSYEGGYVKEPERGLWENIVYLDFRSLYPSIIITHNVSPDTLNREGCKEYDVAPQVGHRFCKDFPGFIPSLLGDLLEERQKIKKKMKATIDPIERKLLDYRQRAIKILANSYYGYYGYARARWYCKECAESVTAWGREYITMTIKEIEEKYGFKVIYSDTDGFFATIPGADAETVKKKAMEFLKYINAKLPGALELEYEGFYKRGFFVTKKKYAVIDEEGKITTRGLEIVRRDWSEIAKETQARVLEALLKDGDVEKAVRIVKEVTEKLSKYEVPPEKLVIHEQITRDLKDYKATGPHVAVAKRLAARGVKIRPGTVISYIVLKGSGRIGDRAIPFDEFDPTKHKYDAEYYIENQVLPAVERILRAFGYRKEDLRYQKTRQVGLSAWLKPKGT
Consider B6, for which the “Results of PCR … of dUTP 1.3 kbp” value is “B”, the “Results of PCR … of dUTP 2.8 kbp” value was “B” and the “Results of PCR … of dUTP 3.6 kbp” value is on record as “B”.

Values taken from patent publication US20150218534A1, “MODIFIED DNA POLYMERASE” (TOYOBO CO., LTD., priority 2012, published 2015).
